Patent US20070253950A1 (Pfizer, published 2007)
Positions count from the first letter of the chain named. Names may count otherwise.

Legend:
[1] = biological target: T1, human RAGE-Fc fusion protein (human, UniProt Q15109 23-344); experiment: ligand competition ELISA, panel 'Blocks hRAGE-Fc interaction with S100-B'; blocked ligand S100-B
T1 construct: amino acids 1-344 of human RAGE appended to the Fc domain of human IgG; also called hRAGE-Fc; huRAGE-Fc

[2] = biological target: T2, baboon RAGE, on cells (baboon, UniProt Q15109 23-404 (human entry)); experiment: cell-based ELISA, transfected 293 cells
T2 construct: on transfected 293 cells or endogenous in lung sections; also called 293-baboon RAGE; RAGE in baboon lung
T2 chain: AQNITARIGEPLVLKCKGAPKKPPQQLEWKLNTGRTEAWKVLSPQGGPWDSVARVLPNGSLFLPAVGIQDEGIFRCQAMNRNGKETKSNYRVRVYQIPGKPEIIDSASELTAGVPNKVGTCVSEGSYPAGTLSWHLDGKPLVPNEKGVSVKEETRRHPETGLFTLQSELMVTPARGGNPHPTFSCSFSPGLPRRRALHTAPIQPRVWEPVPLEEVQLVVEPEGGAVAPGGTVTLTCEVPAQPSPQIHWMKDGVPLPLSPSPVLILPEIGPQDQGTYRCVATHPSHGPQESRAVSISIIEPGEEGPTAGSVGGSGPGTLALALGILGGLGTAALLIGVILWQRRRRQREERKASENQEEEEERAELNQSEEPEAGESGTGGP
Experimental: (§1) Human embryonic kidney 293 cells (American Tissue Type Culture, Manassas, Va.) cells were plated at 5×10⁶ cells per 10 cm² tissue culture plate and cultured overnight at 37° C. The next day cells were transfected with RAGE expression plasmids (pAdori1-3 vector encoding mouse, human, baboon, cynomologus monkey or rabbit RAGE) using LF2000 reagent (Invitrogen, Carlsbad Calif.) at a 4:1 ratio of reagent to plasmid DNA using the manufacturers protocol. Cells were harvested 48 hrs post-transfection using trypsin, washed once with phosphate buffered saline (PBS), then suspended in growth media without serum at a concentration of 2×10⁶ cells/ml.
(§2) Primary antibodies at 1 μg/ml were serially diluted at 1:2 or 1:3 in PBS containing 1% bovine serum albumin (BSA) in a 96-well plate. RAGE-transfected 293 cells or control parental 293 cells (50 μl) at 2×10⁶ cells/ml in serum-free growth medium were added to U-bottom 96 well plate for a final concentration of 1×10⁵ cells/well. The cells were centrifuged at 1600 rpm for 2 minutes. The supernatants were gently discarded by hand with a one-time swing and the plate was patted gently to loose the cell pellet. The diluted primary anti-RAGE antibodies or isotype-matching control antibodies (100 μl) in cold PBS containing 10% fetal calf serum (FCS) were added to the cells and incubated on ice for 1 hour. The cells were stained with 100 μl of diluted secondary anti-IgG antibody HRP conjugates (Pierce Biotechnology, Rockford, Ill.) on ice for 1 hour. Following each step of primary antibody and secondary antibody incubations, the cells were washed 3 times with ice-cold PBS. 100 μl of substrate TMB1 component (BIO FX, TMBW-0100-01) was added to the plate and incubated for 5-30 minutes at room temperature. The color development was stopped by adding 100 μl of 0.18M H₂SO₄. The cells were centrifuged and the supernatants are transferred to a fresh plate and read at 450 nm (Soft MAX pro 4.0, Molecular Devices Corporation, Sunnyvale, Calif.).

[3] = biological target: T3, human RAGE, full length, on cells (human, UniProt Q15109 23-404); experiment: cell-based ELISA, transfected 293 cells
T3 construct: on transfected or infected 293 cells, stably transfected CHO cells, or endogenous in human lung sections; also called cell-surface hRAGE; 293-human RAGE
Experimental: as §1, §2

[4] = biological target: T4, murine RAGE, full length, on cells (murine, UniProt Q62151 23-402); experiment: cell-based ELISA, transfected 293 cells
T4 construct: on transfected or infected 293 cells; also called 293-murine RAGE; cell-surface mRAGE
T4 chain: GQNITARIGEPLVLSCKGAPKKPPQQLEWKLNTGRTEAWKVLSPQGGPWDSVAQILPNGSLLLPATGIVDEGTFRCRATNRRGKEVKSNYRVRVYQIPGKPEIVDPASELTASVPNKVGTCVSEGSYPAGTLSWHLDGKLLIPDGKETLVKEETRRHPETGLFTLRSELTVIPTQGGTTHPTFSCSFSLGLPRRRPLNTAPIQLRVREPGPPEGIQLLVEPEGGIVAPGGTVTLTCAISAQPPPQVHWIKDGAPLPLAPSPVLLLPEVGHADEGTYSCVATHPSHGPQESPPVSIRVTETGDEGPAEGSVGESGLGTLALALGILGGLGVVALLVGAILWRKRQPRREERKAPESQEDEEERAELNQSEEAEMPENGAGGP
Experimental: as §1, §2

[5] = biological target: T5, cynomolgus monkey RAGE, on cells (cynomolgus monkey, UniProt Q15109 23-404 (human entry)); experiment: cell-based ELISA, transfected 293 cells
T5 construct: on transfected 293 cells or endogenous in lung sections; also called 293-cyno monkey RAGE; RAGE in monkey lung
T5 chain: T2 chain with R347G
Experimental: as §1, §2

[6] = biological target: T1, human RAGE-Fc fusion protein; experiment: antibody competition ELISA on hRAGE-Fc; competitor: biotinylated XT-M4
Experimental: ELISA plates were coated overnight with 1 ug/ml human RAGE-Fc. […] Briefly, plates were coated overnight with 1 ug/ml human RAGE-Fc.

[7] = biological target: T6, human RAGE-strep tag fusion protein (human, UniProt Q15109 23-344); experiment: BIACORE capture assay: hRAGE-SA over antibody captured on anti-human Fc; 1:1 Langmuir global fit; average of FC2-FC4
T6 construct: monomeric soluble human RAGE; also called hRAGE-SA; soluble human streptavidin-tagged RAGE
Experimental: The assays were performed by coating anti-human Fc antibodies onto a CM5 BIA chip with 5000 RU (pH 5.0, 7 min.) in flow cells 1-4. Each antibody was captured by flowing at 2.0 μg/ml over the anti-Fc antibodies in flow cells 2-4 (flow cell 1 was used as a reference).

- IC50 (read off the curve) [1]: ~0.08 µg/mL
- EC50 [2]: ~1.25 nM
- EC50 [3]: ~0.8 nM
- EC50 [4]: ~1.5 nM
- EC50 [5]: ~1.66 nM
- IC50 (read off the curve) [6]: ~0.4 µg/mL
- Kd [7]: 7.91 nM
- koff [7]: 0.0351 s⁻¹
- kon [7]: 4.41e+06 M⁻¹ s⁻¹
B1: chimeric XT-M4 (antibody, V domains shown)
VH: EVQLVESGGGLVQPGRSLKLSCVVSGFTFNNYWMTWIRQTPGKGLEWVASINNSGDNTYYPDSVKDRFTISRDNAKSTLYLQMNSLRSEDTATYYCTRGGDITTGFDYWGQGVMVTVSS
VL: DIQMTQSPSSMSVSLGDTITITCRASQDVGIYVNWFQQKPGKSPRRMIYRATNLADGVPSRFSGSRSGSIYSLTISSLESEDVADYHCLEFDEHPLTFGSGTKVEIK
modifications: N-linked oligosaccharide at Asn52 (CDR2) on part of the heavy chains
notes: rat XT-M4 variable regions fused to human kappa light chain and human IgG1 heavy chain constant regions; L234A and G237A in the human IgG1 Fc region; also called chimeric antibody XT-M4; XT-M4-A-1
